Results on one molecule are retold here after patent US7341730B1, “Inhibitors of angiogenesis and tumor growth” (University of Southern California, priority 1998, dated 2008).

The test system of assay [1] is KS cell lines. Nature of the assay: KS cell migration in transwell plates. It is filed as cell-based. The settings on record: chemotaxis induced by VEGF or bFGF. The procedure: The assays were done in double chamber wells separated by fibrinogen-coated membrane. Chemotaxis was induced by bFGF (25 ng/mL) in the lower chamber. Endothelial cells or KS cells (5×10^4/mL) were placed in the upper chamber in the presence and absence of test polypeptides. Taxol at 10 ng/mL was used as a known inhibitor of migration. Cell migration across the membrane was quantitated after an overnight incubation.
Angiogenesis is mediated by complex biochemical processes including degradation of the basement membrane under existing blood vessel endothelial cells, followed by proliferation and migration of endothelial cells, followed by formation of capillary loops, and recruitment of vascular smooth muscle cells to encase the newly formed vessels and provide stability. KS and endothelial cell migration in the presence of Saposin B was studied in transwell culture plates with 8 μm pore membranes (Costar, Cambridge, Mass.).
Briefly, wells were coated with fibronectin (25 μg/mL) overnight, and endothelial cells or KS cells were plated in the upper chamber with 100 μL of DMEM/0.4% FCS. 500 μL of DMEM/0.4% FCS was added to the lower chamber and incubated at 37° C. for one hour. The test polypeptides, at various concentrations, were added to the upper chamber, and chemotactic agents (VEGF or bFGF at 20 ng/mL) were added to the lower cell-culture chambers. The plates were incubated for 5 hr at 37° C. and the cells crossing the fibronectin-coated membrane were counted after wiping the cells off the membrane in the upper chamber with a cotton swab.
The cells that traversed the membrane were fixed with Diff-Quik stain according to the manufacturer's instruction (Dade Diagnostics Inc., Aguada, PR). The cells were counted under a microscope at 320× in four randomly selected fields. The experiments were done in duplicate and repeated at least three times.

Assay [2] relates to KS cell lines. In words: Growth inhibition of KS cell lines by recombinant proteins. It is filed as cell-based. The conditions noted are these: recombinant or naturally occurring protein. The protocol: (§1) Typically, in an anti-proliferation assay, the suppression of growth in the presence of the compound to be tested is measured. For example, the above cells are incubated with the polypeptides of this invention for a suitable time and the decrease in the growth rate relative to a negative control, i.e., cells of the same cell line which have been incubated in media alone, is measured. Growth of the cell culture can be measured by any method acceptable to one of skill, including but not limited to, 3H-thymidine uptake, cell counting and tetrazolium dye uptake.
(§2) By SDS-PAGE, the bacterial product was smaller than the eukaryotic protein. Because prokaryotically expressed proteins are not glycosylated, the difference in molecular weights probably represents the presence of carbohydrate in the eukaryotic protein. Recombinant proteins were then tested in KS, endothelial and control cell lines. Activity was found only in KS cell lines and endothelial cells.

For assay [3], the system named is endothelial cells (HUVEC). In words: Growth inhibition of endothelial cells. It is filed as cell-based. The procedure:
as §1, §2

Assay [4] deals with angiogenesis induced by VEGF or bFGF in chicken allantoic membrane (CAM). In words: Chicken allantoic membrane (CAM) angiogenesis assay. The conditions noted are these: 48 hours. It is filed as in vivo. The procedure: In order to test anti-angiogenic activity, chicken allantoic membrane (CAM) assays were performed with recombinant Saposin B. Ten day old fertilized chicken eggs were prepared for assay by creating a window in the egg shell, and placing filter paper discs saturated with VEGF or bFGF as positive controls, test compounds, or carrier buffer (negative controls) on the allantoic membrane. The membranes were harvested after 48 hours and analyzed using an Olympus stereomicroscope. The number of branching blood vessels that infiltrated under the discs were counted and photographed. Eight CAMs were studied for test group, and the experiments were repeated at least twice.

For assay [5], the system named is CD34+/Flk-1+ cells from cord blood. In words: Growth of CD34+/Flk-1+ progenitors on fibronectin coated dishes. It is filed as cell-based, human. The settings on record: 50 ng/mL. The text has this:
A bone marrow derived human CD34+/Flk-1+ progenitor cell can be mobilized into the blood stream in response to tumor induced signals such as VEGF and cytokine production. These cells can target to sites of angiogenesis where they mature into activated endothelial cells and thus contribute to the generation of new blood vessels at the tumor site. By blocking the production of these cells or by targeting these cells (i.e., the CD34+/Flk-1+ progenitors and the activated endothelial cell they can become), the angiogenesis/vasculogenesis required for tumor growth can be reduced or halted. […] The adherent cells take on a spindle-shaped morphology characteristic of the activated vascular endothelial cells typical of the angiogenic process. These cells express endothelial-specific markers including factor VIII, ulex europaeus agglutinin-1 (UEA-1), endothelial constitutive nitric oxide synthase (ecNOS), and E selectin. Further, when these cells (peripheral blood Flk+ progenitors) are infused into mice, they incorporate into newly formed blood vessels at site of injury. These observation identify CD34+/Flk-1+ bone marrow derived progenitors as a putative precursor to vascular endothelial cells. Preventing these cells from colonizing at distal sites of angiogenesis in tumors has enormous implication for the treatment of tumors. […]

The subject of assay [6] is CD34+ cord blood derived cells. In words: Viability of CD34+ cord blood derived cells. It is filed as cell-based, human. The text has this: However in the presence of Saposin B, CD34^+/Flk-1^+ progenitor growth was inhibited.
Saposin B was found not to be toxic to most CD34^+ cord blood derived cells, since the difference in viability of Saposin B treated CD34^+ cells was only around 20% when compared to control cells. Thus Saposin B not only targets fully differentiated and activated endothelial cells, but also a circulating progenitor, previously shown to target angiogenic sites.

Assay [7] relates to Human bone marrow cells and peripheral blood mononuclear cells. Nature of the assay: Stem cell clonogenic assays in methylcellulose. The conditions noted are these: VEGF 10 and 100 ng/mL. It is filed as cell-based. The procedure:
Human bone marrow cells and peripheral blood mononuclear cells were harvested from a subject after the administration of high doses of cyclophosphamide and G-CSF. Stem cell clonogenic assays in methylcellulose were performed with IL-3, erythropoietin, and VEGF (10 ng/mL, and 100 ng/mL). VEGF was used to determine if there are progenitor cells with self replication capacity but without adherence to extracellular matrix such as fibronectin. It was also desirable to determine if Saposin B was toxic to endothelial cell specific progenitors for hematopoietic (myeloid or erythroid) lineage cells.
These colonies contained mixture of cells indicating more than one cell lineage generated in response to VEGF. The colonies also contained spindle shaped cells which mark the presence of VEGF receptors.

The test system of assay [8] is KS-SLK or KS Y-1 tumors. In words: KS tumor growth in nude mice. It is filed as in vivo. The procedure: FIG. 6: Effect of pentapeptide DVCQD (SEQ ID NO:28) on the growth of established KS Y-1 tumors in mice. Mice were implanted with the tumor on day one. Treatment with the peptide was started on the following day at a dose of 50 mg/kg subcutaneously daily. […] The arrow marks initiation of daily subcutaneous dosing.
In order to determine the anti-angiogenic activity of the recombinant Saposin B, tumor cells were implanted in immuno-deficient mice and treated with either Saposin B or buffer alone.
Nude mice were injected with 2×10^6 KS-SLK or KS Y-1 cells subcutaneously in a total volume of 100 μL. After one week of tumor development, the mice were injected subcutaneously daily with either PBS or Saposin B at concentrations of 1, 10 and 20 mg/kg for a total protein concentration of […]. The tumor size was measured three times a week. The results represent the median of 4 mice in each group.
(§3) To determine whether this anti-tumor effect was reproducible with different classes of syngeneic-tumors, C57BL/6 mice were implanted with Lewis lung carcinoma, melanoma (B16), and T-cell lymphoma (EL-4) cell lines. KS Y-1 was implanted into nude mice for a positive control. The day following tumor implantation, 2.5 mg/kg of Saposin B was administered intraperitoneally. Tumor size was measured three times a week for two weeks at which time the mice were sacrificed for analysis. […] See, FIG. 4
In further experiments, KS tumors were allowed to grow for five days before treatment with Saposin B (1 and 5 mg/kg daily at a distal site from the timer tumor). In control mice, tumors grew to a weight of 555+mg. […] Tumors excised at the conclusion of the experiments were also examined for apoptosis, blood vessel density, and mitotic index. […] Thus, contrary to the results in vitro, Saposin B has an inhibitory effect against […] tumors.

Assay [9] concerns Lewis lung carcinoma. Nature of the assay: Syngeneic tumor growth in C57BL/6 mice, Lewis lung carcinoma. It is filed as in vivo. The conditions noted are these: 2.5 mg/kg from the day following implantation, two weeks. The protocol:
(§4) FIG. 4: Inhibition of tumor growth in mice. C57BL/6 mice were implanted with Lewis lung carcinoma, melanoma (B 16), and T-cell lymphoma (EL4). KS Y-1 was implanted in nude mice as a positive control. One day after implantation 2.5 mg/kg of Saposin B was injected into the mice subcutaneously.
as §3

For assay [10], the system named is melanoma (B16). Nature of the assay: Syngeneic tumor growth in C57BL/6 mice, melanoma (B16). It is filed as in vivo. The conditions noted are these: 2.5 mg/kg from the day following implantation, two weeks. The procedure:
as §4, §3

For assay [11], the system named is T-cell lymphoma (EL-4). In words: Syngeneic tumor growth in C57BL/6 mice, T-cell lymphoma (EL-4). The conditions noted are these: 2.5 mg/kg from the day following implantation, two weeks. It is filed as in vivo. The procedure: as §4, §3
Setting [12] is: KS tumors grown five days before treatment, 1 and 5 mg/kg daily.

“Also recorded” adds a separate entry of the source.

B1: Saposin B: polypeptide fragment of Prosaposin, positions 190 to 269 (SEQ ID NO:2); tested as recombinant protein (protein, listed as Homo sapiens)
chain: GDVCQDCIQMVTDIQTAVRTNSTFVQALVEHVKEECDRLGPGMADICKNYISQYSEIAIQMMMHMQPKEICALVGFCDEVK
modifications: Saposin B
notes: tested as recombinant protein
B1: the “inhibition of KS cell migration” value in [1] was “compete inhibition of cell migration”. For the same molecule, in [2], the “growth inhibition / activity against KS cell lines” value was “dose dependent growth inhibition”. Also, in assay [3], the “growth inhibition / activity against endothelial cells” value is recorded as “dose dependent growth inhibition”. Also, the “inhibition of angiogenesis (number of blood vessel branches) in CAMs” value in [4] is “effectively blocked angiogenesis; also recorded: inhibited by Saposin B in a dose-dependent fashion”. For the same molecule, the “CD34+/Flk-1+ progenitor growth” value in [5] is on record as “inhibited”. In assay [6], the “difference in viability of treated CD34+ cells compared to control cells” value is “around 20%”. Besides, the “effect on colonies generated with VEGF” value in assay [7] was “loss of spindle shaped cells”. Further, the tumor growth result in assay [8] (KS Y-1 in nude mice, 2.5 mg/kg from the day following implantation, two weeks) is recorded as “profound inhibition of tumor growth”; in [8] (nude mice, KS-SLK or KS Y-1, subcutaneously daily after one week, 1, 10 and 20 mg/kg), “markedly retarded”; in assay [9], “profound inhibition of tumor growth”; in assay [10], “profound inhibition of tumor growth”; in assay [11] it was “profound inhibition of tumor growth”. The “apoptosis in excised tumors” value in assay [8] (setting [12]) is reported as “increase in apoptosis”. In assay [8] (setting [12]), the “blood vessel density in excised tumors” value is “decrease in blood vessel density”. The “weights of excised tumors relative to controls” value in assay [8] (setting [12]) is recorded as “approximately 23%”.
